Experimental findings from article PMC13572447, “USP5 acts as a proteolytic switch to control SDE2 function via UBL-directed cleavage” (Nature Communications, 2026) are described below.

One may read the Kd as the free concentration of one partner at which half of the binding sites on the other are occupied at equilibrium, for simple one-to-one binding. For orientation: stoichiometry N means a count of units in the complex or per binding partner.

B1: wild-type USP5 (ubiquitin-specific protease 5), recombinant (enzyme, human, UniProt P45974-1 1-858, looked up)
chain: MAELSEEALLSVLPTIRVPKAGDRVHKDECAFSFDTPESEGGLYICMNTFLGFGKQYVERHFNKTGQRVYLHLRRTRRPKEEDPATGTGDPPRKKPTRLAIGVEGGFDLSEEKFELDEDVKIVILPDYLEIARDGLGGLPDIVRDRVTSAVEALLSADSASRKQEVQAWDGEVRQVSKHAFSLKQLDNPARIPPCGWKCSKCDMRENLWLNLTDGSILCGRRYFDGSGGNNHAVEHYRETGYPLAVKLGTITPDGADVYSYDEDDMVLDPSLAEHLSHFGIDMLKMQKTDKTMTELEIDMNQRIGEWELIQESGVPLKPLFGPGYTGIRNLGNSCYLNSVVQVLFSIPDFQRKYVDKLEKIFQNAPTDPTQDFSTQVAKLGHGLLSGEYSKPVPESGDGERVPEQKEVQDGIAPRMFKALIGKGHPEFSTNRQQDAQEFFLHLINMVERNCRSSENPNEVFRFLVEEKIKCLATEKVKYTQRVDYIMQLPVPMDAALNKEELLEYEEKKRQAEEEKMALPELVRAQVPFSSCLEAYGAPEQVDDFWSTALQAKSVAVKTTRFASFPDYLVIQIKKFTFGLDWVPKKLDVSIEMPEELDISQLRGTGLQPGEEELPDIAPPLVTPDEPKGSLGFYGNEDEDSFCSPHFSSPTSPMLDESVIIQLVEMGFPMDACRKAVYYTGNSGAEAAMNWVMSHMDDPDFANPLILPGSSGPGSTSAAADPPPEDCVTTIVSMGFSRDQALKALRATNNSLERAVDWIFSHIDDLDAEAAMDISEGRSAADSISESVPVGPKVRDGPGKYQLFAFISHMGTSTMCGHYVCHIKKEGRWVIYNDQKVCASEKPPKDLGYIYFYQRVAS
notes: ubiquitin-specific protease 5 (USP5), human; No removal of the His tag is described; the TR-FRET assay detects the His-tagged protein with an anti-His6 antibody; also called USP5^WT; His-USP5; source: E. coli BL21 (DE3), purified (Ni-NTA, SEC Superdex 200)
B2: catalytically inactive USP5 C335A, recombinant (enzyme, human, UniProt P45974-1 1-858, looked up)
chain: MAELSEEALLSVLPTIRVPKAGDRVHKDECAFSFDTPESEGGLYICMNTFLGFGKQYVERHFNKTGQRVYLHLRRTRRPKEEDPATGTGDPPRKKPTRLAIGVEGGFDLSEEKFELDEDVKIVILPDYLEIARDGLGGLPDIVRDRVTSAVEALLSADSASRKQEVQAWDGEVRQVSKHAFSLKQLDNPARIPPCGWKCSKCDMRENLWLNLTDGSILCGRRYFDGSGGNNHAVEHYRETGYPLAVKLGTITPDGADVYSYDEDDMVLDPSLAEHLSHFGIDMLKMQKTDKTMTELEIDMNQRIGEWELIQESGVPLKPLFGPGYTGIRNLGNSAYLNSVVQVLFSIPDFQRKYVDKLEKIFQNAPTDPTQDFSTQVAKLGHGLLSGEYSKPVPESGDGERVPEQKEVQDGIAPRMFKALIGKGHPEFSTNRQQDAQEFFLHLINMVERNCRSSENPNEVFRFLVEEKIKCLATEKVKYTQRVDYIMQLPVPMDAALNKEELLEYEEKKRQAEEEKMALPELVRAQVPFSSCLEAYGAPEQVDDFWSTALQAKSVAVKTTRFASFPDYLVIQIKKFTFGLDWVPKKLDVSIEMPEELDISQLRGTGLQPGEEELPDIAPPLVTPDEPKGSLGFYGNEDEDSFCSPHFSSPTSPMLDESVIIQLVEMGFPMDACRKAVYYTGNSGAEAAMNWVMSHMDDPDFANPLILPGSSGPGSTSAAADPPPEDCVTTIVSMGFSRDQALKALRATNNSLERAVDWIFSHIDDLDAEAAMDISEGRSAADSISESVPVGPKVRDGPGKYQLFAFISHMGTSTMCGHYVCHIKKEGRWVIYNDQKVCASEKPPKDLGYIYFYQRVAS
notes: ubiquitin-specific protease 5 (USP5), human, catalytic Cys335 changed to Ala; Named His-USP5^C335A in the TR-FRET assay; also called His-USP5^C335A; source: E. coli BL21 (DE3), purified (Ni-NTA, SEC Superdex 200)

Conditions in all cases: both partners purified
Experiment [1] deals with T1, Ub-PA activity-based probe (His-Ub-PA) (human, UniProt P0CG48 1-75, C-terminal propargylamide (PA) warhead).
T1 construct: ubiquitin residues 1-75; The plasmid name holds a 3C site between His and Ub; also called Ub-ABP; source: plasmid pTXB1_His-3C-Ub (1-75); obtained by the same method as HA-SDE2UBL-PA
Put plainly: activity-based probe labelling (covalent adduct on SDS-PAGE); purified DUB 1 µM with probe 2 µM in 50 mM Tris pH 7.5, 1 mM DTT, 37 °C; quenched with LDS/DTT; shows only the covalent probe-enzyme adduct as a band shift.

The target of experiment [2] is T2, ubiquitin (monoubiquitin) (human, UniProt P0CG48 1-76).
T2 construct: ubiquitin, human
Put plainly: HDX-MS; USP5^WT 6 µM with or without 200 µM ubiquitin or SDE2UBL, 30 min; 20 mM HEPES pH 7.5, 150 mM NaCl, 1 mM DTT; exchange 0.3 to 3000 s; pepsin digestion.

In experiment [3] the target is T2, ubiquitin (monoubiquitin). Put plainly: ITC; SDE2 construct or Ub titrated into USP5 construct; ITC200, 298 K; 50 mM HEPES, 100 mM NaCl, 1 mM TCEP, pH 7.5; duplicate experiments. In general terms: ITC needs no label: the signal is the heat of the interaction.
Experiment [4] addresses B1. The description is as above.
A further experiment addresses T3, USP5 C335R, recombinant (human, UniProt P45974-1 1-858, C335R).
T3 construct: ubiquitin-specific protease 5 (USP5), human, Cys335 changed to Arg; source: E. coli BL21 (DE3), purified (Ni-NTA, SEC Superdex 200)
T3 sequence (looked up): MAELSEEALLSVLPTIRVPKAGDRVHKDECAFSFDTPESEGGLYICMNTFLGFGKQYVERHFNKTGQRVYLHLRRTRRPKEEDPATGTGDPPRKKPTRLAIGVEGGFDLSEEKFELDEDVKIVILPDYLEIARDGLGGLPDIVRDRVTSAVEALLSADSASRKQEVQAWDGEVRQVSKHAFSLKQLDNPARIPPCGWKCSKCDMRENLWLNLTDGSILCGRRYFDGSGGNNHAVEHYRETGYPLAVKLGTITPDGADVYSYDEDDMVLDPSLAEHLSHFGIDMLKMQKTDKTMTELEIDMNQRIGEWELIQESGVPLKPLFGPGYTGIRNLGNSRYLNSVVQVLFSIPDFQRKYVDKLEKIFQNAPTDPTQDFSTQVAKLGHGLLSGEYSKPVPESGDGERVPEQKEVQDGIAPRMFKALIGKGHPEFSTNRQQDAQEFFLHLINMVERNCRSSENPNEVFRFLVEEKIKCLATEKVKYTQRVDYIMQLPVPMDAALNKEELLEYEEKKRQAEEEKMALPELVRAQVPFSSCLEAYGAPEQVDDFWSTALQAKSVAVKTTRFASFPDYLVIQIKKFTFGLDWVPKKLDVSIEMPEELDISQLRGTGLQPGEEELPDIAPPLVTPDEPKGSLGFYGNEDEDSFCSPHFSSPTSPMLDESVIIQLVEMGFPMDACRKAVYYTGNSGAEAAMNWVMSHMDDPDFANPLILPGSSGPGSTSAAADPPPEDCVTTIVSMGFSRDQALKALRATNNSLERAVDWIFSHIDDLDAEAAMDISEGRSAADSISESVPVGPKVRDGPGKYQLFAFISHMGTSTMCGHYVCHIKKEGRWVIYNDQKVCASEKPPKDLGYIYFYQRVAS
The description is as above.

Experiment [5] addresses B2. The experiment is described as above.
Experiment [6] concerns the target B1. The experiment is described as follows: activity-based probe labelling (covalent adduct on SDS-PAGE); purified DUB 1 µM with probe 2 µM in 50 mM Tris pH 7.5, 1 mM DTT, 37 °C; quenched with LDS/DTT; shows only the covalent probe-enzyme adduct as a band shift.

Consider B1, for which the binding result in experiment [1] and in experiment [2] was “binds” in each case.
In experiment [3], B2 returned a Kd of 0.0117 ± 0.0091 µM.

B3: SDE2 ubiquitin-like domain, SDE2UBL(1-77) (domain or fragment, human, UniProt Q6IQ49-1 1-77, looked up)
chain: MAEAAALVWIRGPGFGCKAVRCASGRCTVRDFIHRHCQDQNVPVENFFVKCNGALINTSDTVQHGAVYSLEPRLCGG
notes: Silencing Defective 2 (SDE2), human, N-terminal ubiquitin-like domain, residues 1-77, ending in the free Gly76-Gly77 motif; also called SDE2 1-77; source: E. coli BL21 (DE3), purified (Ni-NTA, SUMO protease, reverse Ni-NTA, SEC Superdex 75); not shown: His, N-terminal, cleaved; SUMO, N-terminal, cleaved
Take B3: the Kd in experiment [4] is 26.6 µM; in the experiment with USP5 C335R, recombinant it was 2.15 µM; in experiment [5], 1.67 µM. Besides, the “stoichiometry N” value in the experiment with USP5 C335R, recombinant worked out at 1; in experiment [5] it was 2.

B4: HA-SDE2UBL-PA activity-based probe (domain or fragment, human, UniProt Q6IQ49-1 1-76, looked up)
chain: MAEAAALVWIRGPGFGCKAVRCASGRCTVRDFIHRHCQDQNVPVENFFVKCNGALINTSDTVQHGAVYSLEPRLCG
modifications: C-terminal propargylamide: Gly77 replaced with a propargyl electrophilic warhead
notes: Silencing Defective 2 (SDE2), human, ubiquitin-like domain residues 1-76; Reacts covalently with the catalytic cysteine of the protease that recognises it; also called HA-SDE2UBL-ABP; SDE2UBL probe; not shown: HA, N-terminal, kept
Regarding B4, the binding result in experiment [6] is “binds”.

B5: SDE2UBL without the terminal Gly77 (domain or fragment, human, UniProt Q6IQ49-1 1-76, looked up)
chain: MAEAAALVWIRGPGFGCKAVRCASGRCTVRDFIHRHCQDQNVPVENFFVKCNGALINTSDTVQHGAVYSLEPRLCG
notes: Silencing Defective 2 (SDE2), human, ubiquitin-like domain with the terminal Gly77 removed (residues 1-76); also called SDE2UBLΔG77
Turning to B5, the binding result in experiment [4] is listed as “binds”.
